Results from US20110172391A1 (published 2011).

How the values were obtained:
precursor protein MINC = precursor protein MINC (Synechocystis sp. PCC6803); assay: cell-based or functional assay
N-precursor protein MINH = N-precursor protein MINH (Synechocystis sp. PCC6803); assay: cell-based or functional assay

Binder: GVFVHASG [8-aa Ic peptide]
- fold increase of the N-cleavage rate constant with 10 mM DTT against the Ic peptide alone (precursor protein MINC): ~2 fold
- fold increase of the N-cleavage rate constant with 100 mM DTT against the Ic peptide alone (precursor protein MINC): ~10 fold

Binder: GVFVHN [6-aa Ic peptide]
- N-cleavage rate against the longer Ic peptide (with 10 mM or 100 mM DTT) (precursor protein MINC): ~2 fold slower

Binder: GVFVHNSADYKDDDDKSGCLAGDTLITLAS [synthetic peptide (ICF)]
- rate constant (kobs) of the trans-splicing reaction, pseudo-first order, 10-fold molar excess of ICF (N-precursor protein MINH): 6.9e-05 s⁻¹
